From PMC6602146 (Molecules and Cells, 2019)

Biological target: the molecule itself
Test: crystal structure

B1: α-carbonic anhydrase from Persephonella marina EX-H1 (enzyme, UniProt C0QRB5 20-243, looked up)
chain: GGGWSYHGEHGPEHWGDLKDEYIMCKIGKNQSPVDINRIVDAKLKPIKIEYRAGATKVLNNGHTIKVSYEPGSYIVVDGIKFELKQFHFHAPSEHKLKGQHYPFEAHFVHADKHGNLAVIGVFFKEGRENPILEKIWKVMPENAGEEVKLAHKINAEDLLPKDRDYYRYSGSLTTPPCSEGVRWIVMEEEMEMSKEQIEKFRKIMGGDTNRPVQPLNARMIMEK
stoichiometry N: 2
